Laboratory results: EP4772538A1 (Beijing Wisdomab Biotechnology Co., Ltd, dated 2026)

B1: anti-HLA-A02/MAGE-A4 complex and anti-CD3 control bispecific antibody 057G03 (bispecific antibody)
heavy 1: AQLVESGGGLVQPGGSLRLSCAASAYFSFKAMSWVRQAPGKGLEWVGSISPSGGSTYYNDNVLGRFTISRDNSKNTLYLQMNSLRAEDTAVYYCAKDVGFFDEWGQGTLVTVSSASTKGPSVFPLAPSSKSTSGGTAALGCLVEDYFPEPVTVSWNSGALTSGVHTFPAVLQSSGLYSLSSVVTVPSSSLGTQTYICNVNHKPSNTKVDEKVEPKSCDGGGGSGGGGSDIQMTQSPSSLSASVGDRVTITCRASQDIRNYLNWYQQKPGKAPKLLIYYTSRLESGVPSRFSGSGSGTDYTLTISSLQPEDFATYYCQQGNTLPWTFGQGTKVEIKSSASTKGPSVFPLAPSSKSTSGGTAALGCLVKDYFPEPVTVSWNSGALTSGVHTFPAVLQSSGLYSLSSVVTVPSSSLGTQTYICNVNHKPSNTKVDKRVERKSCVECPPCPAPEFEGGPSVFLFPPKPKDTLMISRTPEVTCVVVDVSHEDPEVKFNWYVDGVEVHNAKTKPREEQYNSTYRVVSVLTVLHQDWLNGKEYKCKVSNKALPASIEKTISKAKGQPREPQVYTLPPCREEMTKNQVSLWCLVKGFYPSDIAVEWESNGQPENNYKTTPPVLDSDGSFFLYSKLTVDKSRWQQGNVFSCSVMHEALHNHYTQKSLSLSPGK
heavy 2: AQLVESGGGLVQPGGSLRLSCAASAYFSFKAMSWVRQAPGKGLEWVGSISPSGGSTYYNDNVLGRFTISRDNSKNTLYLQMNSLRAEDTAVYYCAKDVGFFDEWGQGTLVTVSSASTKGPSVFPLAPSSKSTSGGTAALGCLVEDYFPEPVTVSWNSGALTSGVHTFPAVLQSSGLYSLSSVVTVPSSSLGTQTYICNVNHKPSNTKVDEKVERKSCVECPPCPAPEFEGGPSVFLFPPKPKDTLMISRTPEVTCVVVDVSQEDPEVQFNWYVDGVEVHNAKTKPREEQYNSTYRVVSVLTVLHQDWLNGKEYKCKVSNKALPASIEKTISKAKGQPREPQVCTLPPSQEEMTKNQVSLSCAVKGFYPSDIAVEWESNGQPENNYKTTPPVLDSDGSFFLVSKLTVDKSRWQEGNVFSCSVMHEALHNHYTQKSLSLSPGK
light: DIQMTQSPSSLSASVGDRVTITCRASQSISSYLAWYQQKPGKAPKLLIYDASIRDIGVPSRFSGSGSGTDFTLTISSLQPEDFATYYCQQYSSYPYTFGQGTKLEIKRTVAAPSVFIFPPSDRKLKSGTASVVCLLNNFYPREAKVQWKVDNALQSGNSQESVTEQDSKDSTYSLSSTLTLSKADYEKHKVYACEVTHQGLSSPVTKSFNRGEC
chain: EVQLVESGGGLVQPGGSLRLSCAASGYSFTGYTMNWVRQAPGKGLEWVALINPYKGVSTYNQKFKDRFTISVDKSKNTAYLQMNSLRAEDTAVYYCARSGYYGDSDWYFDVWGQGTLVTVSSASVAAPSVFIFPPSDEQLKSGTASVVCLLNNFYPREAKVQWKVDNALQSGNSQESVTEQDSKDSTYSLSSTLTLSKADYEKHKVYACEVTHQGLSSPVTKSFNRGEC
notes: also called 057D03 (variable regions)
B2: anti-HLA-A02/MAGE-A4 complex TCRm antibody N18D10-Fc (Fc fusion)
chain: EVQLVESGGGSVQTGETLRLSCTVSGFTFDDSDMGWYRQAPGNECELVSTITTDGSTYYADSVKGRFTISQDNAKTTAYLQMDSLKPEDTAVYYCAADLPILRPTPCGDSVLYNYWGQGTQVTVSS
notes: Camel VHH fused to the Fc region of human IgG1; not shown: Fc region of human IgG1
B3: humanized anti-HLA-A02/MAGE-A4 complex TCRm antibody N18D10-h16-Fc (Fc fusion)
chain: QVQLVESGGGLVKPGGSLRLSCAVSGFTFDDSDMGWYRQAPGNECELVSTITTDGSTYYADSVKGRFTISQDNAKTSAYLQMNSLRAEDTAVYYCAADLPILRPTPCGDSVLYNYWGQGTTVTVSS
notes: Humanized VHH fused to the Fc region of human IgG1; not shown: Fc region of human IgG1
B4: TCRm x CD3 bispecific antibody 2N18D10-h16+IMCR (bispecific antibody)
chain 1: QVQLVESGGGLVKPGGSLRLSCAVSGFTFDDSDMGWYRQAPGNECELVSTITTDGSTYYADSVKGRFTISQDNAKTSAYLQMNSLRAEDTAVYYCAADLPILRPTPCGDSVLYNYWGQGTTVTVSSGGGGSGGGGSGGGGSQVQLVESGGGLVKPGGSLRLSCAVSGFTFDDSDMGWYRQAPGNECELVSTITTDGSTYYADSVKGRFTISQDNAKTSAYLQMNSLRAEDTAVYYCAADLPILRPTPCGDSVLYNYWGQGTTVTVSSASERKSSVECPPCPAPEFEGGPSVFLFPPKPKDTLMISRTPEVTCVVVDVSQEDPEVQFNWYVDGVEVHNAKTKPREEQYNSTYRVVSVLTVLHQDWLNGKEYKCKVSNKALPASIEKTISKAKGQPREPQVCTLPPSQEEMTKNQVSLSCAVKGFYPSDIAVEWESNGQPENNYKTTPPVLDSDGSFFLVSKLTVDKSRWQEGNVFSCSVMHEALHNHYTQKSLSLSPGK
chain 2: not shown
notes: also called 22N18D10-h16+IMCR
B5: TCRm x CD3 bispecific antibody 2N18D10+IMCR (bispecific antibody)
chain 1: EVQLVESGGGSVQTGETLRLSCTVSGFTFDDSDMGWYRQAPGNECELVSTITTDGSTYYADSVKGRFTISQDNAKTTAYLQMDSLKPEDTAVYYCAADLPILRPTPCGDSVLYNYWGQGTQVTVSSGGGGSGGGGSGGGGSEVQLVESGGGSVQTGETLRLSCTVSGFTFDDSDMGWYRQAPGNECELVSTITTDGSTYYADSVKGRFTISQDNAKTTAYLQMDSLKPEDTAVYYCAADLPILRPTPCGDSVLYNYWGQGTQVTVSSASERKSSVECPPCPAPEFEGGPSVFLFPPKPKDTLMISRTPEVTCVVVDVSQEDPEVQFNWYVDGVEVHNAKTKPREEQYNSTYRVVSVLTVLHQDWLNGKEYKCKVSNKALPASIEKTISKAKGQPREPQVCTLPPSQEEMTKNQVSLSCAVKGFYPSDIAVEWESNGQPENNYKTTPPVLDSDGSFFLVSKLTVDKSRWQEGNVFSCSVMHEALHNHYTQKSLSLSPGK
chain 2: not shown

How the values were obtained:
[1] = molecular target: T1, HLA-A02 complex of … (MHC-P1-His), disulfide trap single-chain trimer (human); experiment: SPR, Biacore T200, method of Section 3.1; affinity for MHC-P1
T1 construct: also called recombinant protein MHC-P1

[2] = molecular target: T2, HLA-A02/MAGE-A4 complex on the cell surface (MAGE-A4230-239 (…) presented by HLA-A02) (human); experiment: cell-based or functional assay
[3] = molecular target: T2, HLA-A02/MAGE-A4 complex on the cell …; experiment: cell-based or functional assay; remark: listed apart in the source
[4] = molecular target: T2, HLA-A02/MAGE-A4 complex on the cell …; experiment: cell-based or functional assay; remark: listed apart in the source
[5] = molecular target: T2, HLA-A02/MAGE-A4 complex on the cell …; experiment: cell-based or functional assay; remark: listed apart in the source
[6] = molecular target: T3, HLA-A02 complex of alanine-scanning mutant peptide E7A of MAGE-A4230-239 on pulsed T2 cells (human); experiment: flow cytometry on peptide-pulsed T2 cells, N18D10-Fc at 10 nM, anti-human IgG-FITC
T3 construct: whole, on cells

[7] = molecular target: T2, HLA-A02/MAGE-A4 complex on the cell …; experiment: as above
[8] = molecular target: T4, HLA-A02 complex of alanine-scanning mutant peptide D4A of MAGE-A4230-239 on pulsed T2 cells (human); experiment: as above
T4 construct: whole, on cells

[9] = molecular target: T5, HLA-A02 complex of alanine-scanning mutant peptide Y3A of MAGE-A4230-239 on pulsed T2 cells (human); experiment: as above
T5 construct: whole, on cells

[10] = molecular target: T6, HLA-A02 complex of alanine-scanning mutant peptide V2A of MAGE-A4230-239 on pulsed T2 cells (human); experiment: as above
T6 construct: whole, on cells

[11] = molecular target: T7, HLA-A02 complex of alanine-scanning mutant peptide R6A of MAGE-A4230-239 on pulsed T2 cells (human); experiment: as above
T7 construct: whole, on cells

[12] = molecular target: T8, HLA-A02 complex of alanine-scanning mutant peptide T9A of MAGE-A4230-239 on pulsed T2 cells (human); experiment: as above
T8 construct: whole, on cells

[13] = molecular target: T9, HLA-A02 complex of alanine-scanning mutant peptide V10A of MAGE-A4230-239 on pulsed T2 cells (human); experiment: as above
T9 construct: whole, on cells

[14] = molecular target: T10, HLA-A02 complex of alanine-scanning mutant peptide H8A of MAGE-A4230-239 on pulsed T2 cells (human); experiment: as above
T10 construct: whole, on cells

[15] = molecular target: T11, HLA-A02 complex of alanine-scanning mutant peptide G5A of MAGE-A4230-239 on pulsed T2 cells (human); experiment: as above
T11 construct: whole, on cells

[16] = molecular target: T1, HLA-A02 complex of … (MHC-P1-His), …; experiment: SPR, Biacore T200; antibody captured by anti-human IgG (Fc), MHC-P1-His injected, 25°C, 1:1 model
[17] = molecular target: T1, HLA-A02 complex of … (MHC-P1-His), …; experiment: SPR, Biacore T200, method of Section 3.1; antibody captured, MHC-P1-His injected

| Binder | Kd [1] | koff [1] | kon [1] | EC50 of activation of Jurkat-Dual cells via HLA-A02+/MAGE-A4+ tumor cells A375 (QUANTI-Luc) [2] | EC50 of killing of A375 cells (HLA-A02+/MAGE-A4+) via PBMCs (LDH release) [3] | EC50 of activation of Jurkat-Dual cells via antigen peptide-pulsed T2 cells (QUANTI-Luc) [4] | EC50 of killing of antigen peptide-pulsed T2 cells via PBMCs (LDH release) [5] | other results |
| --- | --- | --- | --- | --- | --- | --- | --- | --- |
| B1 | 33 nM | 0.0167 s⁻¹ | 507000 M⁻¹ s⁻¹ | 0.749 nM | 5.52 nM | 0.175 nM | 0.00453 nM | – |
| B2 | – | – | – | – | – | – | – | binding relative to the original peptide [6]: 27.4%; binding relative to the original peptide [7]: 100%; binding relative to the original peptide [8]: 18.4%; binding relative to the original peptide [9]: -0.12%; binding relative to the original peptide [10]: 41.1%; binding relative to the original peptide [11]: -0.56%; binding relative to the original peptide [12]: 33.6%; binding relative to the original peptide [13]: 0.35%; binding relative to the original peptide [14]: -0.13%; binding relative to the original peptide [15]: -1.02%; Kd [16]: 0.388 nM; koff [16]: 7.18e-05 s⁻¹; kon [16]: 185000 M⁻¹ s⁻¹ |
| B3 | – | – | – | – | – | – | – | Kd [17]: 0.467 nM; koff [17]: 7.61e-05 s⁻¹; kon [17]: 163000 M⁻¹ s⁻¹ |
| B4 | 0.43 nM | 7.83e-05 s⁻¹ | 182000 M⁻¹ s⁻¹ | 0.145 nM | 0.0761 nM | 0.0143 nM | 0.00256 nM | – |
| B5 | 0.388 nM | 7.61e-05 s⁻¹ | 196000 M⁻¹ s⁻¹ | 0.189 nM | 0.0498 nM | 0.0145 nM | 0.00236 nM | – |
